Patent JP2002536968A (dated 2002)

B1: キメラ抗KDR抗体 c-p1C11 (antibody, from another filing)
scFv: QVKLQQSGAELVGSGASVKLSCTTSGFNIKDFYMHWVKQRPEQGLEWIGWIDPENGDSDYAPKFQGKATMTADSSSNTAYLQLSSLTSEDTAVYYCNAYYGDYEGYWGQGTTVTVSSGGGGSGGGGSGGGGSDIELTQSPAIMSASPGEKVTITCSASSSVSYMHWFQQKPGTSPKLWIYSTSNLASGVPARFSGSGSGTSYSLTISRMEAEDAATYYCQQRSSYPFTFGSGTKLEIK
B2: scFv p1C11 (scFv)
chain: B1 scFv

Legend:
[1] = biological target: HUVEC上の細胞表面発現KDR (human) (UniProt P35968); experiment: cell-based or functional assay
[2] = biological target: T1, 可溶性融合タンパク質 KDR-AP (human, UniProt P35968 20-764); experiment: BIAcore, KDR-AP immobilised (refers to Table 2)
T1 construct: extracellular domain; Made in NIH3T3 cells; also called KDR-アルカリ性ホスファターゼ融合タンパク質; 固定化KDR; not shown: human placental alkaline phosphatase (AP), from vector AP-tag
T1 sequence (P35968 20-764): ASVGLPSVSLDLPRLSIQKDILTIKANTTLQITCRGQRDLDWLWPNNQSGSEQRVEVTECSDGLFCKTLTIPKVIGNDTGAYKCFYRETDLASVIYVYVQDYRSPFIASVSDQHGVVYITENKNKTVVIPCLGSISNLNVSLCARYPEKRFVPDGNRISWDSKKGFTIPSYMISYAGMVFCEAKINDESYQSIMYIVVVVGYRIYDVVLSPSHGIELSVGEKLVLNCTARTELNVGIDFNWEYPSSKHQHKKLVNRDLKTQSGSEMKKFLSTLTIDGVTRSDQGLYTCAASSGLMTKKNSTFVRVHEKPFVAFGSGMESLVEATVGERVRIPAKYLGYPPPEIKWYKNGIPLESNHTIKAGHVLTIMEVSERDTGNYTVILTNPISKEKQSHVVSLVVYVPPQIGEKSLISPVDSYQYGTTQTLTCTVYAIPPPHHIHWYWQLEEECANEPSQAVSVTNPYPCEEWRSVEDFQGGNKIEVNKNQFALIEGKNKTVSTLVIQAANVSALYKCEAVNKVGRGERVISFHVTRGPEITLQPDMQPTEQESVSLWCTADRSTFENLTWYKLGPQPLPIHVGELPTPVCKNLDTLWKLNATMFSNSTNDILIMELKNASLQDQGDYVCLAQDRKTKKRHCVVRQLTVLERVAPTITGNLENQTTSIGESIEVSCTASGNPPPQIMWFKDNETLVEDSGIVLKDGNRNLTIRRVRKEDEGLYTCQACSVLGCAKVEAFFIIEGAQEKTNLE

[3] = biological target: T1, 可溶性融合タンパク質 KDR-AP; experiment: BIAcore, KDR-AP immobilised, antibody injected at 25-200 nM
[4] = biological target: T1, 可溶性融合タンパク質 KDR-AP; experiment: competitive VEGF binding ELISA: antibody mixed with KDR-AP, then on VEGF165-coated plate
[5] = biological target: T1, 可溶性融合タンパク質 KDR-AP; experiment: BIAcore, KDR-AP immobilised, soluble scFv injected
[6] = biological target: T1, 可溶性融合タンパク質 KDR-AP; experiment: competitive VEGF blocking ELISA: scFv mixed with KDR-AP, then on VEGF165-coated plate
[7] = biological target: T1, 可溶性融合タンパク質 KDR-AP; experiment: direct binding ELISA, soluble scFv on KDR-coated plate; concentration for 50% of maximal binding

Binder | HUVECのVEGF誘導性有糸分裂誘発の50%を抑制するのに必要な抗体濃度 ([3H]-TdR) [1] [nM] | fold higher affinity than parent scFv p1C11 [2] [fold] | Kd [3] [nM] | IC50 [4] [nM] | Kd [5] [nM] | IC50 [6] [nM] | EC50 [7] [nM]
B1 | 0.8 | 2.5 | 0.82 | 0.8 | – | – | –
B2 | – | – | – | 2 | 2.1 | 3 | 0.3
